# Residue numbers refer to the chain shown, from its start.
# B1: ヒト型化#23-57-137-1抗体 L鎖バージョン"j" (antibody, V domains shown)
# VH: QVQLVESGGGVVQPGRSLRLSCAASGFTFSSYGMSWVRQAPGKGLEWVATISSGGSYTYYPDSVKGRFTISRDNSKNTLYLQMNSLRAEDTAVYYCARQTTMTYFAYWGQGTLVTVSS
# VL: QLVLTQSPSASASLGASVKLTCTLSSQHSTYTIEWYQQQPEKGPKYLMDLKQDGSHSTGDGIPDRFSGSSSGAERYLTISSLQSEDEADYYCGVGDTIKEQFVYVFGGGTKLTVLG
# notes: Humanized H chain version a with human Cγ1; human lambda L chain C region; also called hMBC1HcDNA/pCOS1 + hMBC1Ljλ/pCOS1; version j
# B2: ヒト型化#23-57-137-1抗体 L鎖バージョン"t" (antibody, V domains shown)
# VH: B1 VH
# VL: B1 VL with K45R, L47V, Y91I
# notes: Humanized H chain version a with human Cγ1; human lambda L chain C region; also called hMBC1HcDNA/pCOS1 + hMBC1Ltλ/pCOS1; version t
# B3: ヒト型化H鎖バージョン"a"とキメラL鎖を組み合わせた抗体 (antibody, V domains shown)
# VH: B1 VH
# VL: QLVLTQSSSASFSLGASAKLTCTLSSQHSTYTIEWYQQQPLKPPKYVMDLKQDGSHSTGDGIPDRFSGSSSGADRYLSISNIQPEDEAMYICGVGDTIKEQFVYVFGGGTKVTVLG
# notes: Human Cγ1 H chain C region; also called humanized H chain version a + chimeric L chain
# B4: ヒト型化#23-57-137-1抗体 L鎖バージョン"q" (antibody, V domains shown)
# VH: B1 VH
# VL: B1 VL with Y91I
# notes: Humanized H chain version a with human Cγ1; human lambda L chain C region; also called ヒト型化抗体バージョンq; hMBC1HcDNA/pCOS1 + hMBC1Lqλ/pCOS1
# B5: ヒト型化#23-57-137-1抗体 L鎖バージョン"o" (antibody, V domains shown)
# VH: B1 VH
# VL: B1 VL with K45R, L47V
# notes: Humanized H chain version a with human Cγ1; human lambda L chain C region; also called hMBC1HcDNA/pCOS1 + hMBC1Loλ/pCOS1; version o
# B6: ヒト型化#23-57-137-1抗体 L鎖バージョン"l" (antibody, V domains shown)
# VH: B1 VH
# VL: B1 VL with L47V
# notes: Humanized H chain version a with human Cγ1; human lambda L chain C region; also called hMBC1HcDNA/pCOS1 + hMBC1Llλ/pCOS1; version l
# B7: ヒト型化#23-57-137-1抗体 L鎖バージョン"m" (antibody, V domains shown)
# VH: B1 VH
# VL: B1 VL with K45R
# notes: Humanized H chain version a with human Cγ1; human lambda L chain C region; also called hMBC1HcDNA/pCOS1 + hMBC1Lmλ/pCOS1; version m
# Target: T1, ヒトPTHrP(1-34) (human)
# T1 construct: Synthetic peptide, coated on ELISA plates (Peptide Institute) or mixed with antibody in the cAMP neutralisation assay; also called human parathyroid hormone related protein (1-34)
# Assay: ELISA, plate-coated human PTHrP(1-34)
row,binding result,Binder
1,binds,B1
2,binds,B2
3,binds,B3
4,binds,B4
5,binds,B5
6,binds,B6
7,binds,B7
